Test: soluble on expression in E. coli; label from the status in PepcDB or PDB records

| Sequence | soluble on expression in E. coli |
| --- | --- |
| MKDSALTLKRVRIGKFSESMVEERPTLNLFEKVEFNPVPTALVDQLPTEPLVEATLLEKEAITFVDTYATSEAHDQIATFVLEQSMETEVVEKEAIETAIVAPAPDLVEEKAVLVEEVLVEPTATEAVTTEENQVSTTSVTKIKTKRSNTKKVTSETLVASKSVKTKKLITPNRVSSGNVNITLWQVDKKSTNLTKTKTDLFGKKHQFKGPQLISYKK | soluble |
| MTLYPKLILDALATVRYPGTGKNLLEAEMVADNLRIDGMAVSFSLIFEKPTDPFMKSMLKAAETAIHTYVSPDVQVTITTESKQAARPEVGKLLPQVKNIIGISSGKGGVGKSTVSANLAVALAKLGYKVGLLDADIFGPSMPKMFQVEDARPYAEKINGRDLIIPVEKYGVKLLSIGFFVDPDQATLWRGGMASNALKQLIGDADWGDLDYFLIDLPPGTSDIHLTVVQTLAMTGAIVVSTPQAVALADARKGINMFTNDKVNVPILGLVENMAWFTPAELPENKYYIFGKEGAKKLAEEMNVPLLGQIPIVQSICEGGDNGTPVALDEDTVTGRAFLSLAASVVRQVDRRNVEMAPTKIVEMH | not soluble |
| RGFQHGIRHNVEQFGMGTSAISFSTWRTSKEYGGYPKDRYIELTPADCDYLVKLNPDLIKGAAYYTNQWSYDVQYEDRTHSTPTKAVSGEYGNMVKTHLIEGRFLSTSDDAMKRKVIVLCEQTADVLFGESISPIGKYVNLSQIPFLVVGVCKGEQGQFSPNYIPFATYSGIFAKGFSLDCTLFMNCPSVRTEENVERLKVLLNRQLAFRKGYDPTDMEVPYVDAPVTDIKMMDKIFNGMD | not soluble |
| MGSDKIHHHHHHMFLGEDYLLTNRAAVRLFNEVKDLPIVDPHNHLDAKDIVENKPWNDIWEVEGATDHYVWELMRRCGVSEEYITGSRSNKEKWLALAKVFPRFVGNPTYEWIHLDLWRRFNIKKVISEETAEEIWEETKKKLPEMTPQKLLRDMKVEILCTTDDPVSTLEHHRKAKEAVEGVTILPTWRPDRAMNVDKEGWREYVEKMGERYGEDTSTLDGFLNALWKSHEHFKEHGCVASDHALLEPSVYYVDENRARAVHEKAFSGEKLTQDEINDYKAFMMVQFGKMNQETNWVTQLHIGALRDYRDSLFKTLGPDSGGDISTNFLRIAEGLRYFLNEFDGKLKIVLYVLDPTHLPTISTIARAFPNVYVGAPWWFNDSPFGMEMHLKYLASVDLLYNLAGMVTDSRKLLSFGSRTEMFRRVLSNVVGEMVEKGQIPIKEARELVKHVSYDGPKALFFG | soluble |
| MMRNEHVAKGITGVSWYDFKQKLKYKAECGNMEFIEIGRFDPSFEIWSRCGWIDYNLKLSDRIFRCENCGLVIDRDLNTAINISNMELKKVGKGIPEFTPVDIATAADPTIRTGTASSRSMNREPPKPKRLEHHHHHH | not soluble |
| NLYFQSARFALTVVRHGETRFNKEKIIQGQGVDEPLSETGFKQAAAAGIFLNNVKFTHAFSSDLMRTKQTMHGILERSKFCKDMTVKYDSRLRERKYGVVEGKALSELRAMAKAAREECPVFTPPGGETLDQVKMRGIDFFEFLCQLILKEADQKEQFSQGSPSNCLETSLAEIFPLGKNHSSKVNSDSGIPGLAASVLVVSHGAYMRSLFDYFLTDLKCSLPATLSRSELMSVTPNTGMSLFIINFEEGREVKPTVQCICMNLQDHLNGLTETR | soluble |
| MRLVIHGKNIDITDGIRSYLNQKIERATSHFQNVINEVDVHLSVARNRSTAPKQTAEVTVFVNGSVIRAEESSENLYASIDLVADKIARKLRKLKEKRQDKSRAKDTNSVVEPEVVTDLVGDRTPQLPEQVVRMKYFAMPPMTIQEALEHLEMVDHDFYVFRNRDTGEINVVYERNHGGYGVIQPRPTSNNHHHNTADAAAKATAKAGPLEHHHHHH | soluble |
| MNVKPLQAKDVAEKVLFGELFILDVRNEADYEDWKIEGKQVSSINKPYFDLLDGVDHIVSELPKDKDVLVVCAKEGSSIFVAEQLTEAGLQNIYYLAGGMKAWSEYVKPIKVGNLKDGGSMYQFNRLGKGCLSYMVISNGEAAVIDAVRTAEAYEEFAKEHGVTIKNVMDTHLHADHISGGRKLAEKVGGTYWLPPKDAEEVVFSYEPLVEGSVITVGGTKIEIDALYSPGHTIGSTSFIVDDSYLLSGDILFVDSIGRPDLAGKAEDWVSDLRNTLYSRYKELSQNLVVLPAHYSKVSEMNESGIVSAKLKDLFANNAGLNIEDEGEFRKVVTENLPPQPNAYEEIRQTNMGKIHPSVDKEREMEIGPNRCAVHE | not soluble |
| MKVTLPEFERAGVMVVGDVMLDRYWYGPTSRISPEAPVPVVKVNTIEERPGGAANVAMNIASLGANARLVGLTGIDDAARALSKSLADVNVKCDFVSVPTHPTITKLRVLSRNQQLIRLDFEEGFEGVDPQPLHERINQALSSIGALVLSDYAKGALASVQQMIQLARKAGVPVLIDPKGTDFERYRGATLLTPNLSEFEAVVGKCKTEEEIVERGMKLIADYELSALLVTRSEQGMSLLQPGKAPLHMPTQAQEVYDVTGAGDTVIGVLAATLAAGNSLEEACFFANAAAGVVVGKLGTSTVSPIELENAVRGRADTGFGVMTEEELKLAVAAARKRGEKVVMTNGVFDILHAGHVSYLANARKLGDRLIVAVNSDASTKRLKGDSRPVNPLEQRMIVLGALEAVDWVVSFEEDTPQRLIAGILPDLLVKGGDYKPEEIAGSKEVWANGGEVLVLNFEDGCSTTNIIKKIQQDKKG | soluble |
| MGSNPPASPLQDNLVIALHSYEPSHDGDLGFEKGEQLRILEQSGEWWKAQSLTTGQEGFIPFNFVAKANSLEPEPWFFKNLSRKDAERQLLAPGNTHGSFLIRESESTAGSFSLSVRDFDQNQGEVVKHYKIRNLDNGGFYISPRITFPGLHELVRHYTNASDGLCTRLSRPCQT | soluble |
| MGSDKIHHHHHHMNRIAEEVGLQKASVYHHYAEKDTLLLALVDYVVEELRYRIVQPDDEDPRQQLRRFIDEVVFGHHAGPDATALSPPTDGTIRAFIQIRAQAVHDDDYREQITTIDRIQQEHIAEIIQRGVDAGEFRDVDPTQVASFISTLLTGVFTRRVTMTTDLTPVREATHAYLEAVLVA | not soluble |
| MRGSGPRDRGSNPRPATTPTALSYISLPTSDSTRWGGLAVARARGVVLGYRRGTNTQYPQHALVKLLLDDPRKAGLYVSGIAFYRDRYGNVYKGRVLRLHGRRGGVVVVKFNPPLPGQATGGVVEVVKAGGDGLEHHHHHH | not soluble |
| MGSDKIHHHHHHMKLRKQLAQQIVTSIKDVCQQDINFINTKGIIFASTNPKRVGEFHEIGLKVAQTGQMIEVTDQESYFGTQAGINIPFYYNCELLATIGISGNPNQVGKYALLAQKMTRLILKEHELDYLDFGRKNEASIVLHHLVEGRELDYYYLNQFLNQYHLSEKTDYRLLTFEINSQKQKLLLSQSEMSLLNFFDKLDTAIYTFNYPNQYWLLLSDHMFDYYYPNILSKFECEKGLYKVGIGQKSSLSLLKRSYETSILALKALKGQQKVNLVDDLDLELLLTSIDSNIKQYVLNKALVNLSENDKILLNSYFKHNLSLKECSQELFIHKNTVQYRLNKIYESTQLNPRNFKDATLLYLALKSEDINLHKL | not soluble |
| MGSDKIHHHHHHMSQQASLPDDDNWLLEDTDGDEAGRPSEVRKPWKVLIVDDEKDVHTATRIALRGISYKERPLELLSAYSGAEAFQMLQQHADIALIMLDVVMESEDAGLRLVHRIREELDNGVVRIVLRTGQPGQAPEQEVILNYDINDYKTKTELTTQKLFTTTIASLRAYENLVSLEKNRQGLAKILESASDLYQLHSLREFASGVLRQISALLDIGTDGILCVRNDNLVGRPELEILAVSGAYEYLAESGDLSNEPHLAAVFQQVFKEKRSIYQHPYDVLYISSRNRREFAVHFMPQWPLDSVERDLLDVFCQRISAAYDNLYLYNQLRSAQEATVVALADLAEFRDTDTGDHVLRVQKLTDAIAEEMVSHNHYPELMTHEFMDMVGMASILHDIGKVATPDHILLKPGKLDPEERAIMEQHATIGAQILAKSAQLVEGASYLSLGSEIAGGHHEHFDGNGYPGKLQGQAIPLSARIVAVVDVFDALLNKRPYKEPWSMEDTMKYINGRSGTQFDPHVVAALSRLVSEDRLPVQFGD | not soluble |

Source: the DeepSol protein solubility set
